Data: the RNAGym collection of RNA variant scans (doi:10.1073/pnas.2313332121)
Variants at the floor of the assay were thinned out.

B1: TPR 5TU (parent)
chain: GGAUCUUCUCGAUCUAACAAAAAAGACAAAUCUGCCACAAAGCUUGAGAGCAUCUUCGGAUGCAGAGGCGGCAGCCUUCGGUGGCGCGAUAGCGCCAACGUUCUCAACUAUGACACGCAAAACGCGUGCUCCGUUGAAUGGAGUUUAUCAUG

Variants of: B1
Assay: polymerase ribozyme fitness, log enrichment relative to wild type (log ratio); higher = more active; in vitro selection for triplet polymerase activity
Outline: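 After PCR construction and transcription, each subunit's mutant library from a heterodimeric triplet polymerase ribozyme was annealed with a biotinylated primer, the partner subunit and triplets. Incubation was frozen, at −7 °C, and extended constructs were gel-excised, bound to streptavidin beads and amplified by RT-PCR, in one selection round done in triplicate. Fitness is the logarithm of a genotype's enrichment divided by that of the wild type, from inverse-variance-weighted replicate averages of Illumina-sequenced inputs and outputs. The base of the logarithm is 2, and genotypes needed ≥10 input reads and ≥1 read per output.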

| Variant | polymerase ribozyme fitness (log ratio) |
| --- | --- |
| GGAUCUUCUCGAUCUAACCCAAAAGACAAAUCUGCCACAGAGCUUGAGAGCAUCCUCGGAUGCAGAGGCGUCAGCCUUCGGUGACGCGAUAGCGCCAACGUUCUCAACUAUGACACGCAAAACGCGUGCUCCGUUGAUAGGAGUUUAUCAUG | ≤ -4.2 |
| GGAUCUUCUCGAUCUAACCAAAAAGACAAAUCUGCCACUAAGCUUGAGAGCAUCUUCGGAUGCAGAGGCGGCAGCCUUCGGUGCCGCGAUAGAGCCAACGUUCUCAACUAUGACACGCAAAACGCGUGCUCCGUUGAAUGGAGUUUAACAUG | ≤ -4.2 |
| GGAUCUUCUCGAUCUAACCAAAAAGACAAAUCUGCCACAAAGCUUGAGAGCGUCUUCGGAUGCAGAGGCGGCAGCCUUCGGUGGCGCGAUACCGCAAACGUUCUCAACUAUGACACGCAAAACGCGUGCUCCGUUGAAUGGAGUUUCUCAUG | -3.53 |
| GGAUCUUCUCGAUCUAACCAAAAAGACAAAUCUGGCACAAAGCUUGAGAGCAACUUAGGAUGCAGAGGCGGCAGCCUUCGGUGGCGCGAUAACGCCAACGCUCUCAACUAUGACACGCAAAACGCGUGCUCCGUUGAAUGGAGUUUAUCAUG | -4.13 |
| GGAUCUUCUCGAUCUAACCAAAAAGACAAAUCUGCCACAAAGCUUGAGAGCAUCUUCGGAUGCAGAGGCGGCAGCCUUCGGUGGCGCGAUAGCGCCAACGUUCUCAGCUAUGACACGCAAAACGCGUGCUCCGUUGAAUGGAGUUUAUCAUG | -3.75 |
| GGAUCUUCUCGAUCUAACCAAAAAGACAAAUCUGCCACAUAGCUUAAGAGCAUCUUCGGAUGCAGAGGCGGCAGCCUUCGGUGGCGCGAUAGCGCCAACGUUCUCAACUAUGACACGCAAAACGCGUGCUCCGUUGAAUGGAGUUUAUCAUG | -0.204 |
| GGAUCUUCUCGAUCUAACCAAAAAGAGAAAUCUGCCACAAAGCUUGAGAGCAUCUUCGGAUGCAGAGGCAGCAGCUUUCGGUGGCGCGAUAGCUCCAACGUUUUCAACUAUGACACGCAUAACGCGUGAUCCGUUGAAUGGAGUUUACCAUG | ≤ -4.2 |
| GGAUCUUCUCGAUCUAACCAAAAAGACAAAUCUGCCACAACGCUUGAGAGCAUCUUCGGAUGCAGAGGCGGCAGCCUUCGGUGGCGCGAUAGCGCCAACGUUCUCAACUAUGACACGCAAAACGCGUGCUCCGUUGAAUGGAGUUUACCAUG | -1.99 |
| GGAUCUUCUCGAUCUAACCAAAAAGACAAAUCUGCCACAAAGCUUGAGAGCAUCUUCGGAUGCAGCGGCGGCAGCCUUCGGUGGCGCGAUAGCACCAACGUUCUCAACUAUGACACGCAAAACGCGUGCUCCGGUGAAUGGAGUUUAUCAUG | ≤ -4.2 |
| GGAUCUUCUCGAUCUAACCAAAAAGACAAAUCUGCCACAAAGCUUGAGAGCGUCUUCGGAUGCAGAGGCGGCAGCCUUCGGUGGCGCAAUAGCGCCAACGUUCUCGACUAUGACACGCAAAACGCGUGCUCCGUUGAAAGGAGUUUAUCAUG | ≤ -4.2 |
| GGAUCUUCUCGAUCUAACCAAAGGGACAAAACUGACACAUAGCUUGAAAGCAUCUUCGGAUGCAGAGGCGGCAGCCUUAGGUGGCGCGAUAGCGCCAACGUUCUCAACUAUGACACGCAAAACGCGUGCUCCGUUGAAUAGAGUUUAUCAUG | ≤ -4.2 |
| GGAUCUUCUCGAUCUAACCAAUAAGACAAAUCUGCCACAAAUCUUGAGAGCAUCUUCGGAUGCAGAGGCGGCAGGAUUCGGUGGCGCGAUAGCACCAACGUUCUCAACUUUGACACGCAAAACGCGUGCUCCUUUGAAUGGAUUUGAUCAUG | ≤ -4.2 |
| GGAUCUUCUCGAUCUAACCAAAAAGACACAUCGGCCACAAAGCUUGAGAGCAUCUUCGGAUGCAGAGGCGGCAGCCUUCGGUGGCGGGAUAGCGCCAACGUUCUCAAUUAUGACACGCAAAACGCGUGCUCCGUAGAAUGGAGUUUAACAUG | ≤ -4.2 |
| GGAUCUUCUCGAUCUAACCAAAAAGACAAAUCUGCCACAAAGCUUGAGAGCAUCUUCGGCUGCAGAGGCGGCAGCCUUCGGUGGCGCGAUAGCGCCAACGUGCUCAACGAUGACACGCAAAACGCGUGCUCCGUUGAAUGGAGUUUAUCAGG | ≤ -4.2 |
| GGAUCUUCUCGAUCUAACCAAAAAGACAUAUCUGCCACUAAGCUUGAGAGCAUCUUCGGUUGCAGAGGCGGCAGCUUUCGGUGGCGCGAUAGCGUCAACGUUCUCAACUAUGACACGCAAAACGCGUGCUCCGUUGAAUGGAGAUUAUCAUG | ≤ -4.2 |
| GGAUCUUCUCGAUCUAAUAAAAAAGACAAAUCUGCCACAAAGCUUGAGAGCAUCUUCGGAGGCAGAGGCGGCAGCCUUCGGUGGCGCGAUCGGGCUAAUGUUCUCAACUAUGACACGCAAAACGCGUGCUCCGUUGAAUGGAGUUUUUCAUG | ≤ -4.2 |
| GGAUCUUCUCGAUCUAACCACAAAGACAAAUCUGUCACAAAGCUUGAGAGCAUCUUCGUAUGCAGAGGCGGCAGUCUUCGGUGGCGCGAUAGCGCCAACGUUCUCAACUAUGACACGCAAAACGCGUGCUCCGUUGAAUGGAGUUUAUCAUG | -1.16 |
| GGAUCUUCUCGAUCUAACCAAAAAGACCAAUCUGCCACAAAGCUUGAGAGCAUCUUCGGAUGCAGAGGCGGCGGCCUUCGGUGGCGUGAUAGCGCCAACGUUCUCAACUAUGACACGCAAAACGCGUGCUCCGUUGAAUGGAGUUUAUCAUG | ≤ -4.2 |
| GGAUCUUCUCGAUCUAAUAAAAAAGACAAAUCUGCCACAAAGCUUGAGAGCAUCUUCGGAUGCAGAGGCGGCAGCCUUCGGUGGCGCGAGAGCGCCAACGUUCUCAACUAUGACACGCAAAACGCGUGCUCCGUUGAAUGGAGUUUAUCAUG | ≤ -4.2 |
